Results: patent US20200017566A1 (priority 2014, published 2020)
Square brackets hold non-standard residues; d marks the D form. βAla = NCCC(=O)O; Sar = CNCC(=O)O

Key:
[1] = target: T1, human ferroportin (Homo sapiens, UniProt Q9NP59); assay type: cell-based; details: Table 3
T1 construct: expressed in transfected cells
T1 sequence (Q9NP59 1-571): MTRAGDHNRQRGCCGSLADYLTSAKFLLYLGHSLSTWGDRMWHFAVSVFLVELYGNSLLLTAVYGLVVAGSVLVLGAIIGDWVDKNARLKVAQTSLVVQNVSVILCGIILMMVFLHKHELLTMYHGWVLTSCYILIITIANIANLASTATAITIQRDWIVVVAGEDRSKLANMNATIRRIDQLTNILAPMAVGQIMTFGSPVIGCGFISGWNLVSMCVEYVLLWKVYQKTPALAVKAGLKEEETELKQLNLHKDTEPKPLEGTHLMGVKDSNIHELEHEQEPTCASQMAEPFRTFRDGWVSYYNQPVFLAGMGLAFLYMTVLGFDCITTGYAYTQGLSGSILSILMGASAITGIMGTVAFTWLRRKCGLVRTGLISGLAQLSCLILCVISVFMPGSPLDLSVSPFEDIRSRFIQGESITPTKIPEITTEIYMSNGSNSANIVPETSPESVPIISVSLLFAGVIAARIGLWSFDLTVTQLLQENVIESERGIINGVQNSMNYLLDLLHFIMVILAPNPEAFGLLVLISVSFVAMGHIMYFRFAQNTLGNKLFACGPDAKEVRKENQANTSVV
Experimental: Peptide analogues were tested in vitro for induction of internalization of the human ferroportin protein. Following internalization, the […] are degraded. The assay measures a decrease in fluorescence of the receptor.
The cDNA encoding the human ferroportin (SLC40A1) was cloned from a cDNA clone from Origene (NM_014585). The DNA encoding the ferroportin was amplified by PCR using primers also encoding terminal restriction sites for subcloning, but without the termination codon. The ferroportin receptor was subcloned into a mammalian GFP expression vector containing a neomycin (G418) resistance marker in such that the reading frame of the ferroportin was fused in frame with the GFP protein. The fidelity of the DNA encoding the protein was confirmed by DNA sequencing. HEK293 cells were used for transfection of the ferroportin-GFP receptor expression plasmid. The cells were grown according to standard protocol in growth medium and transfected with the plasmids using Lipofectamine (manufacturer's protocol, Invitrogen). […] The cells were propagated and frozen in aliquots.
A retro inverse peptide is a peptide with a reversed sequence in all D amino acids. […] The EC50 of these reference compounds for ferroportin degradation was determined according to the activity assay described above.

[2] = reported by Presza et al. J Clin Invest. 2011; cited from earlier work
[3] = target: T2, human ferroportin (SLC40A1) fused to GFP (human, UniProt Q9NP59 1-571); experiment: cell-based or functional assay
T2 sequence (looked up): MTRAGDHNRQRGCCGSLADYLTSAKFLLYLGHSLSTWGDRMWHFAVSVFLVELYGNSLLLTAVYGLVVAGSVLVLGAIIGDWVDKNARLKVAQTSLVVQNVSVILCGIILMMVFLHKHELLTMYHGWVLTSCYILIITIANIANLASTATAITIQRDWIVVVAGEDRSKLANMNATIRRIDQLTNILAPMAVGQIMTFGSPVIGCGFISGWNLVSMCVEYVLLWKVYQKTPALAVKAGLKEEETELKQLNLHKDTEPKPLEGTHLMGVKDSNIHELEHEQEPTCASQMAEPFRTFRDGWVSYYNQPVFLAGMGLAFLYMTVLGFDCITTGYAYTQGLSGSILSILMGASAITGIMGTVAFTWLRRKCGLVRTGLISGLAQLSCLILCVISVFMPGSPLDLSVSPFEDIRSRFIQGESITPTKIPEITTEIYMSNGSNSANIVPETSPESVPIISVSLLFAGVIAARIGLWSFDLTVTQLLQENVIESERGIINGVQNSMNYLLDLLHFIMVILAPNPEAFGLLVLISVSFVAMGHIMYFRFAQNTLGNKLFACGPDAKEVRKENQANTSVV

Molecule: DTHCPIAIF [compound 473]
- Ferroportin internalization assay EC50 (nM) [1]: Not Active

Molecule: Hy-DPhe-DIle-DCys-DIle-DPro-DPhe-DHis-DThr-DAsp-NH2 [RI-Mini Hepcidin]
- activity in vivo [2]: highly active in vivo

B1: CMPD No. 205 (peptide)
peptide: DTHFPCIKFKPRSKGWVCK
modifications: not fully specified; IVA (isovaleric acid) on side chain of Lys 10; C-terminal amide
- Potency EC50 [3]: > 0.3 µM

B2: CMPD No. 127 (peptide)
peptide: H-DTHF[Sar]CIIFGPRSKGWVCK-NH2
modifications: not fully specified (bridges); printed as Hy-DTHF-[Sarc]-CIIFGPRSKGWVCK-NH2; cysteine pairing not given here
- Potency EC50 [3]: > 10 µM

B3: CMPD No. 131 (peptide)
peptide: H-DTHFKCIIFGPRSKGWVCK-NH2
modifications: not fully specified (bridges); printed as Hy-DTHFKCIIFGPRSKGWVCK-NH2; cysteine pairing not given here
- Potency EC50 [3]: > 10 µM

B4: CMPD No. 123 (peptide)
peptide: H-DTHFGCIIFGPRSKGWVCK-NH2
modifications: not fully specified (bridges); printed as Hy-DTHFGCIIFGPRSKGWVCK-NH2; cysteine pairing not given here
- Potency EC50 [3]: > 10 µM

B5: CMPD No. 129 (peptide)
peptide: H-DTHF[βAla]CIIFGPRSKGWVCK-NH2
modifications: not fully specified (bridges); printed as Hy-DTHF-[β-Ala]-CIIFGPRSKGWVCK-NH2; cysteine pairing not given here
- Potency EC50 [3]: > 10 µM

B6: CMPD No. 125 (peptide)
peptide: H-DTHFRCIIFGPRSKGWVCK-NH2
modifications: not fully specified (bridges); printed as Hy-DTHFRCIIFGPRSKGWVCK-NH2; cysteine pairing not given here
- Potency EC50 [3]: > 10 µM
